From patent publication US20220226469A1 (ARCH ONCOLOGY, published 2022)
Values belong to the binder of their own block, whether it stands above or below them.

Legend:
[1] = molecular target: T1, human SIRPα expressed on cells (THP-1 cells, human monocyte-derived macrophages, dendritic cells) (human, UniProt P78324 31-504); experiment: flow cytometry on human monocyte-derived dendritic cells; apparent Kd
T1 construct: Endogenous SIRPα of cell line or donor cells; also called cell-expressed SIRPα; macrophage expressed SIRPα
T1 sequence (P78324 other isoform, or with tags, fused parts or gaps): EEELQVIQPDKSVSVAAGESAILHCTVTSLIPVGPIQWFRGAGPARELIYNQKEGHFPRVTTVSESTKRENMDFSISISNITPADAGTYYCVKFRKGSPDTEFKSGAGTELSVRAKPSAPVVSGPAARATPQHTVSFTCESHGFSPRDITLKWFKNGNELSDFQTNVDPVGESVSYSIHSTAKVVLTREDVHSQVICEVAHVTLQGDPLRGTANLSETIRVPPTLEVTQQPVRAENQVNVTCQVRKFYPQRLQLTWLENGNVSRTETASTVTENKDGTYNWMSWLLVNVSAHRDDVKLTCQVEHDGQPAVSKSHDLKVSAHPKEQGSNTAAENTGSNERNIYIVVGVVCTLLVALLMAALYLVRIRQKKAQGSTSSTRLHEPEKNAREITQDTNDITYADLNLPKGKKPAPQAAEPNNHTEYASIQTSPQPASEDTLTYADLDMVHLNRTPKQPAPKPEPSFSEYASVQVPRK
Description: (§1) Human CD14⁺ monocytes, isolated from peripheral blood mononuclear cells (Astarte Biologics) were differentiated in vitro for seven days into macrophages or dendritic cells. For macrophage differentiation, monocytes were incubated in AIM-V media (Life Technologies) supplemented with 50 ng/ml M-CSF (Biolegend) for seven days. For dendritic cell differentiation, monocytes were incubated in AIM-V media (Life Technologies) in the presence of 10% human AB serum (Valley Biomedical), 200 ng/ml GM-CSF (Biolegend) and 50 ng/ml IL-4 (Biolegend). The cells were incubated for 1 h at 37° C., 5% CO₂ with serial dilutions of SIRP mAbs in binding buffer containing 1 mM EDTA (Sigma Aldrich) and 1% FBS (Biowest) in PBS (Corning). The cells were then washed and stained for 45 min under the same conditions with donkey anti-mouse IgG fluorescein isothiocyanate (FITC)-linked secondary antibody (Jackson ImmunoResearch Laboratories). The cells were subsequently stained with anti-CD14 or anti-CD11c conjugated to Alexa Fluor 647 fluorophore (Life Technologies and Biolegend, respectively) for 30 min on ice, washed and analyzed by flow cytometry (Attune, Life Technologies). Binding was assessed as the median FITC fluorescence intensity of CD14⁺ or CD11c⁺ cells, subtracted from cells stained with the secondary antibody only.

[2] = molecular target: T2, HIS tagged human SIRPα (ACRO #SIG-H5225) (human, UniProt P78324 31-373); experiment: blocking ELISA on plate-coated HIS tagged human SIRPα; competitor Fc tagged human CD47 (250 ng/ml)
T2 construct: Bought protein; also called Histidine (HIS) tagged human SIRPα; not shown: histidine tag
T2 sequence (P78324 31-373 limits assumed): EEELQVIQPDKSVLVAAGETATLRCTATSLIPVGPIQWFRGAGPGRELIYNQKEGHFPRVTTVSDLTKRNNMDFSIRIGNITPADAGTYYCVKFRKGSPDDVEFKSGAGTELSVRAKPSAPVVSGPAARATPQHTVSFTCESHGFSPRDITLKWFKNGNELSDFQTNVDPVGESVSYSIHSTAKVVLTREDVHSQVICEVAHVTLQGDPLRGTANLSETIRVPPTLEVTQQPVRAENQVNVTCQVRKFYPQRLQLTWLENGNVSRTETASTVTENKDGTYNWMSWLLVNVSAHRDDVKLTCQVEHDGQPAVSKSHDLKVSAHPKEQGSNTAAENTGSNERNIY
Description: HIS tagged human SIRPα (ACRO #SIG-H5225) is adsorbed to high-binding microtiter plates at a concentration of 1 μg/ml diluted in PBS overnight at 4° C. The coating solution is removed, the wells are washed and then blocked with […] in PBS containing 0.5% Tween 20 (PBST) for 60 minutes at room temperature while shaking. Blocking solution is removed, the wells are washed and incubated for 60 minutes at room temperature while shaking with anti-SIRP mAbs diluted in PBST at a starting concentration of 30 μg/ml and reducing the concentration by 3-fold serial dilutions. Wells are washed three times with PBST and incubated for 60 minutes at room temperature while shaking with an FC tagged human CD47 (ACRO #CD7-H5256) at a concentration of 250 ng/ml in PBST. Wells are washed three times with PBST and incubated for 60 minutes at room temperature while shaking with an HRP labeled donkey anti-mouse or anti-human secondary antibody (Jackson ImmunoResearch Laboratories) diluted 1:20,000 in PBST. The wells are washed and then incubated with peroxidase substrate and the absorbance at 450 nm determined. The IC₅₀ was calculated using a non-linear fit model (GraphPad Prism).

[3] = molecular target: T1, human SIRPα expressed on cells (THP-1 …); experiment: flow cytometry on human monocyte-derived macrophages; apparent Kd
Description: as §1

B1: KWAR-23 (antibody, V domains shown)
VH: EVQLQQSGAELVKPGASVKLSCTASGFNIKDYYIHWVQQRTEQGLEWIGRIDPEDGETKYAPKFQDKATITADTSSNTAYLHLSSLTSEDTAVYYCARWGAYWGQGTLVTVSA
VL: QIVLTQSPAIMSASPGEKVTLTCSASSSVSSSYLYWYQQKPGSSPKLWIYSTSNLASGVPARFSGSGSGTSYSLTISSMEAEDAASYFCHQWSSYPRTFGAGTKLELKR
Kd [1]: 23.4 pM

B4: SIRP3 (antibody, mouse IgG1, kappa, V domains shown)
VH: EVQLQQSGPEVVKPGASVKMSCKASGYTFTSYVMHWVKQKPGQGLEWIGYINPYNDGPKYNEKFKGKATLTSDKSSSTAYMELSSLTSEDSAVYFCARWDYFNSASGFAFWGQGTLVTVSA
VL: EIVLTQSPTTMAASPGEKITIICSASSIIGSDFLHWYQQRPGFSPKFLIYRTSILASGVPTRFTGSGSGTSYSLTIGTMEAEDVATYYCQQGSGLPLTFGSGTKLEMKR
notes: Hybridoma-derived mouse mAb
Kd [1]: 3.47 pM
IC50 [2]: 2700 pM

B5: SIRP2 (antibody, mouse IgG1, kappa, V domains shown)
VH: EVKLVESGGGLVQPGGSLKLSCAASGFSFSGCTMSWIRQTPERRLEWVAYISNGGDITYYPDTVKGRFTISRDNAKNSLYLQMSSLKSEDTAMYYCARLDGYYYAMDFWGQGTSVTVSS
VL: DILLTQSPAILSVSPGERVSFSCRASQSIGTSIHWYQQRTNGSPRLLIKYGSESISGIPSRFSGSGSGTDFTLSINSVESEDIADYYCQQSNTWPLTFGDGTKLELKR
notes: Hybridoma-derived mouse mAb
IC50 [2]: 3000 pM

B7: SIRP4 (antibody, V domains shown)
VH: EVQLQQSGPDLVKPGASVKISCKASGYSFTDYFLNWVKQSHGKSLEWIGRINPYNGDSFINQNFRDKATLTVDKSSTTAHMDLLSLTSEDSAIYYCGRGGYDGYFIAYFDYWGQGSLVTVSA
VL: DIKLTQSQSSMYSSLGQRVTITCKASQDINSHLSWFQEKPGKSPKTLIYRANRLADGVPSRFSGSGSGQDYFLTISSLEYEDVGIYYCLQYDEFPYTFGGGTKLEIK
notes: anti-mouse secondary
Kd [1]: 50 pM
Kd [3]: 20.7 pM
IC50 [2]: 710 pM

Other lines, results leading:

Kd [1]: 770 pM
B2: SIRP5 (antibody, V domains shown)
VH: QVQLQQSAAELARPGASVKMSCKASGYTFTSYTMHWVKQRPGQGLEWIGYINPTIGYTEYNQKFKDKTTLTADKSSSTAYMQLSSLTSEDSAVYYCVRLVITSVLGRAMDYWGQGTSVTVSS
VL: QIVLTQSPALMSASPGEKVTMTCSASSSVSYMYWFQQKPRSSPKPWIYLTSNLASGVPARFSGSGSGTSYSLTISSMEAEDAATYYCQQWSGNPFTFGSGTKLEIK

IC50 [2]: 1100 pM
B3: SIRP7 (antibody, V domains shown)
VH: EVQLQQSGPELVKPGASVKMSCRASGYTFSTYVMHWIKHRPGQGLEWIGYINPNNDGPNYNEKFKGKATLTSDISSSTAYMELSSLTSEDSAVYFCSRWDSYNSAAGFAYWGHGTLVTVSA
VL: EIVLTQSPTTMAASPGEKITIICSASSSISSNFLHWYQQKPGFSPRFLIYRTSILASGVPTRFSGSGSGTSYSLTIDTMEAEDVATYYCQQGSGLPLTFGSGTKLEIK

Kd [3]: 93.7 pM
B6: SIRP9 (antibody, V domains shown)
VH: EVQLQESGAELVRPGASVKLSCKALGYTFTDYEIHWVKETPVYGLEWIGDIHPGSGGTANNQKFKGKATLTADKSSNTAYMELSSLTSEDSAVYYCTRAVSGYYAMDYWGQGTSVTVSS
VL: DIQMTQSSSSFSGSLGDRLTINCKASEDIYDRVAWYQQKPGNAPRLLISGTASLETGVLSRFSGSGSGKDYTLSINGLQAEDVATYYCQQYWTTPWTFGGGTKLEIK
notes: anti-mouse secondary
